# ± gives the standard deviation of the averaged measurements.
# Tested on: ATP
# Assay: switch fluorescence ratio, 500 uM ATP over buffer (Cy3 cluster intensity, sum of 5 cycles each) (fold (ratio)); higher = stronger signal-on switching upon ATP binding; sequences stand for … in TCGTCGGCAGCGTCAGATGTGTATAAGAGACAGTTTTTTTTTTTTTTTTTTTTTTTTT…TC
# Conditions: aptamer strand: ATP DNA aptamer (quencher-CACCTGGGGGAGTATTGCGGAGGAAGG + anchor), 100 nM annealed; ATP concentration: 500 uM
# Outline: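 Values give the fluorescence ratio for each switch-domain sequence, averaged from per-cluster ratios of summed target-cycle to summed buffer-cycle Cy3 intensity. The Cy3-labelled switching-strand clusters sat on a modified Illumina MiSeq flow-cell, were annealed to 100 nM quencher-labelled ATP aptamer, and were imaged in selection buffer, then after 15 min with 500 uM ATP at 22 °C. Five cycles ran with NaOH stripping and re-annealing between them, and clusters outside 100-1000 RFU were excluded.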
# 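Also: ATP exposure 15 min at 22 °C before imaging.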
sequence,measurement,value
CGGCAGGCAC,switch fluorescence ratio,1.21 ± 0.037
CGGCAGTTCG,switch fluorescence ratio,0.979 ± 0.014
CGGCATATAG,switch fluorescence ratio,1.99 ± 0.2
CGGCATTCAA,switch fluorescence ratio,0.9989 ± 0.0057
CGGCCATTCG,switch fluorescence ratio,0.982 ± 0.021
CGGCCGAACT,switch fluorescence ratio,1.033 ± 0.0064
CGGCCGAGGT,switch fluorescence ratio,1.02 ± 0.02
CGGCCGGACT,switch fluorescence ratio,1.01 ± 0.047
CGGCCGGGGT,switch fluorescence ratio,1.035 ± 0.0058
CGGCCGTTCG,switch fluorescence ratio,1.1 ± 0.14
CGGCCTACAG,switch fluorescence ratio,1.05 ± 0.028
CGGCCTCTGC,switch fluorescence ratio,1.15 ± 0.091
CGGCCTGCG,switch fluorescence ratio,1.02 ± 0.1
CGGCCTTGGT,switch fluorescence ratio,1.01 ± 0.044
CGGCGCTTCT,switch fluorescence ratio,1.1 ± 0.028
CGGCGGCGGG,switch fluorescence ratio,1.03 ± 0.015
CGGCGGGCAA,switch fluorescence ratio,1.81 ± 0.69
CGGCGGGGAA,switch fluorescence ratio,0.9757 ± 0.00091
CGGCTGACGA,switch fluorescence ratio,1.03 ± 0.041
CGGCTGGCTT,switch fluorescence ratio,1 ± 0.033
CGGCTGTGTG,switch fluorescence ratio,0.974 ± 0.02
CGGGAAATTG,switch fluorescence ratio,0.9893 ± 0.0035
CGGGAACATT,switch fluorescence ratio,1.01 ± 0.017
CGGGAAGGAG,switch fluorescence ratio,0.9685 ± 0.0053
CGGGACGCGA,switch fluorescence ratio,1.28 ± 0.043
CGGGACGGGG,switch fluorescence ratio,0.967 ± 0.022
CGGGACTTGT,switch fluorescence ratio,0.952 ± 0.067
CGGGAGACAT,switch fluorescence ratio,1.01 ± 0.014
CGGGAGACGG,switch fluorescence ratio,1.31 ± 0.26
CGGGAGGGAA,switch fluorescence ratio,1.02 ± 0.023
CGGGAGGGGA,switch fluorescence ratio,1 ± 0.025
CGGGAGTGCG,switch fluorescence ratio,1.02 ± 0.024
CGGGATAGTA,switch fluorescence ratio,0.994 ± 0.041
CGGGATCATT,switch fluorescence ratio,0.958 ± 0.017
CGGGATGGCC,switch fluorescence ratio,1 ± 0.018
CGGGATGTAG,switch fluorescence ratio,0.987 ± 0.026
CGGGATTGGT,switch fluorescence ratio,1.01 ± 0.13
CGGGCAAGGG,switch fluorescence ratio,1.19 ± 0.029
CGGGCAATCA,switch fluorescence ratio,1.58 ± 0.11
CGGGCACGTG,switch fluorescence ratio,0.946 ± 0.021
CGGGCAGAGG,switch fluorescence ratio,0.993 ± 0.01
CGGGCAGCTG,switch fluorescence ratio,1.04 ± 0.048
CGGGCAGGGC,switch fluorescence ratio,1.04 ± 0.019
CGGGCCCGTA,switch fluorescence ratio,0.961 ± 0.094
CGGGCCGACT,switch fluorescence ratio,1.01 ± 0.039
CGGGCCTCCG,switch fluorescence ratio,1.152 ± 0.0046
CGGGCGAATT,switch fluorescence ratio,0.982 ± 0.014
CGGGCGATGG,switch fluorescence ratio,1.08 ± 0.017
CGGGCGCACT,switch fluorescence ratio,1.06 ± 0.037
CGGGCGCTGA,switch fluorescence ratio,0.9837 ± 0.004
CGGGCGGCGG,switch fluorescence ratio,0.9921 ± 0.0076
CGGGCTCAAC,switch fluorescence ratio,1.033 ± 0.0071
CGGGCTGAAT,switch fluorescence ratio,0.987 ± 0.025
CGGGCTGGAA,switch fluorescence ratio,1.004 ± 0.0086
CGGGCTGTTT,switch fluorescence ratio,0.977 ± 0.013
CGGGCTTAAA,switch fluorescence ratio,1 ± 0.018
CGGGGAAGGA,switch fluorescence ratio,1.016 ± 0.006
CGGGGAAGGC,switch fluorescence ratio,1.13 ± 0.065
CGGGGAATAG,switch fluorescence ratio,1.16 ± 0.094
CGGGGAGGCG,switch fluorescence ratio,0.982 ± 0.079
CGGGGAGGGC,switch fluorescence ratio,1.04 ± 0.071
CGGGGAGTGT,switch fluorescence ratio,1 ± 0.043
CGGGGCATAT,switch fluorescence ratio,1.13 ± 0.085
CGGGGCCTAG,switch fluorescence ratio,1.01 ± 0.058
CGGGGCGCGA,switch fluorescence ratio,1.1 ± 0.049
CGGGGCGGCA,switch fluorescence ratio,0.998 ± 0.032
CGGGGCGTCA,switch fluorescence ratio,0.978 ± 0.032
CGGGGCTAGG,switch fluorescence ratio,0.992 ± 0.017
CGGGGCTCCT,switch fluorescence ratio,0.995 ± 0.036
CGGGGCTGGA,switch fluorescence ratio,0.984 ± 0.017
CGGGGGAAAC,switch fluorescence ratio,0.977 ± 0.015
CGGGGGACT,switch fluorescence ratio,1.61 ± 0.85
CGGGGGAGAG,switch fluorescence ratio,0.9847 ± 0.009
CGGGGGATAG,switch fluorescence ratio,1.06 ± 0.074
CGGGGGATCC,switch fluorescence ratio,1.13 ± 0.16
CGGGGGATCT,switch fluorescence ratio,1.01 ± 0.038
CGGGGGCAGT,switch fluorescence ratio,1.006 ± 0.0067
CGGGGGCTCC,switch fluorescence ratio,1.02 ± 0.021
CGGGGGCTT,switch fluorescence ratio,1.002 ± 0.0044
CGGGGGGATC,switch fluorescence ratio,1.02 ± 0.058
CGGGGGGCGG,switch fluorescence ratio,0.986 ± 0.032
CGGGGGGGGT,switch fluorescence ratio,1.01 ± 0.031
CGGGGGGTTC,switch fluorescence ratio,1 ± 0.019
CGGGGGTGGG,switch fluorescence ratio,1.01 ± 0.047
CGGGGGTTAT,switch fluorescence ratio,1.03 ± 0.063
CGGGGTAAGG,switch fluorescence ratio,0.988 ± 0.024
CGGGGTAGGT,switch fluorescence ratio,0.984 ± 0.027
CGGGGTCCTC,switch fluorescence ratio,1.01 ± 0.018
CGGGGTCGTG,switch fluorescence ratio,0.9904 ± 0.0035
CGGGGTGAAC,switch fluorescence ratio,0.994 ± 0.038
CGGGGTGCCG,switch fluorescence ratio,0.98847 ± 0.00081
CGGGGTGCGG,switch fluorescence ratio,1 ± 0.056
CGGGGTGGCT,switch fluorescence ratio,0.977 ± 0.16
CGGGGTGGTT,switch fluorescence ratio,1.01 ± 0.038
CGGGGTTAAG,switch fluorescence ratio,0.975 ± 0.025
CGGGGTTCTT,switch fluorescence ratio,1.02 ± 0.031
CGGGGTTGAC,switch fluorescence ratio,0.9924 ± 0.0098
CGGGGTTGCC,switch fluorescence ratio,0.955 ± 0.022
CGGGGTTTAG,switch fluorescence ratio,0.992 ± 0.051
CGGGTAAACG,switch fluorescence ratio,0.964 ± 0.079
CGGGTAAATA,switch fluorescence ratio,1.011 ± 0.0084
CGGGTAAGTC,switch fluorescence ratio,0.995 ± 0.01
CGGGTAATCT,switch fluorescence ratio,1.5 ± 0.61
CGGGTACCGC,switch fluorescence ratio,1.05 ± 0.053
CGGGTACGGT,switch fluorescence ratio,0.992 ± 0.022
CGGGTAGAAG,switch fluorescence ratio,0.971 ± 0.046
CGGGTAGGCT,switch fluorescence ratio,1.02 ± 0.057
CGGGTAGGTG,switch fluorescence ratio,1.03 ± 0.058
CGGGTAGTGC,switch fluorescence ratio,1.028 ± 0.0078
CGGGTAGTTG,switch fluorescence ratio,0.995 ± 0.014
CGGGTATGGT,switch fluorescence ratio,1 ± 0.027
CGGGTATTGC,switch fluorescence ratio,1.03 ± 0.011
CGGGTATTTC,switch fluorescence ratio,1.01 ± 0.014
CGGGTCGGCC,switch fluorescence ratio,0.997 ± 0.025
CGGGTCGGGA,switch fluorescence ratio,0.995 ± 0.041
CGGGTCGTGG,switch fluorescence ratio,0.996 ± 0.024
CGGGTCTTGT,switch fluorescence ratio,0.98864 ± 0.00032
CGGGTGAGGG,switch fluorescence ratio,1.017 ± 0.0065
CGGGTGATCG,switch fluorescence ratio,0.96 ± 0.043
CGGGTGGGAT,switch fluorescence ratio,1.006 ± 0.0035
CGGGTGGTAT,switch fluorescence ratio,0.991 ± 0.023
CGGGTGGTTA,switch fluorescence ratio,1.01 ± 0.022
CGGGTGTGTG,switch fluorescence ratio,0.981 ± 0.019
CGGGTTAATG,switch fluorescence ratio,0.986 ± 0.019
CGGGTTCCGA,switch fluorescence ratio,0.998 ± 0.024
CGGGTTCGAG,switch fluorescence ratio,0.959 ± 0.001
CGGGTTCTTT,switch fluorescence ratio,1.03 ± 0.11
CGGGTTGGAA,switch fluorescence ratio,0.9731 ± 0.0091
CGGGTTGGGT,switch fluorescence ratio,1.01 ± 0.049
CGGGTTTCAC,switch fluorescence ratio,1 ± 0.003
CGGGTTTGCG,switch fluorescence ratio,0.992 ± 0.036
CGGGTTTGGT,switch fluorescence ratio,1.01 ± 0.011
CGGGTTTTGG,switch fluorescence ratio,1.01 ± 0.034
CGGGTTTTTC,switch fluorescence ratio,0.972 ± 0.028
CGGGTTTTTG,switch fluorescence ratio,0.994 ± 0.03
CGGTAACAAA,switch fluorescence ratio,1.01 ± 0.019
CGGTACTCGA,switch fluorescence ratio,0.993 ± 0.015
CGGTAGCTTG,switch fluorescence ratio,1 ± 0.019
CGGTAGGATG,switch fluorescence ratio,0.971 ± 0.011
CGGTAGGATT,switch fluorescence ratio,1.04 ± 0.014
CGGTAGGTGC,switch fluorescence ratio,0.976 ± 0.063
CGGTATATGG,switch fluorescence ratio,0.962 ± 0.013
CGGTATGTGA,switch fluorescence ratio,0.985 ± 0.041
CGGTATTCTG,switch fluorescence ratio,1.01 ± 0.052
CGGTCAAAAA,switch fluorescence ratio,1.03 ± 0.033
CGGTCAGTAA,switch fluorescence ratio,1.03 ± 0.022
CGGTCATCTT,switch fluorescence ratio,0.9991 ± 0.0047
CGGTCCAGTA,switch fluorescence ratio,0.912 ± 0.048
CGGTCCCATT,switch fluorescence ratio,0.992 ± 0.047
CGGTCCGGTG,switch fluorescence ratio,1.04 ± 0.026
CGGTCCTGAA,switch fluorescence ratio,1.03 ± 0.002
CGGTCGAGGA,switch fluorescence ratio,0.988 ± 0.021
CGGTCGCTGG,switch fluorescence ratio,0.991 ± 0.026
